What was measured:
[1] = target: T1, SmBChE1 (Schistosoma mansoni, UniProt A0A3Q0KKW0); test: Ellman assay, inhibition of BcSCh hydrolysis; assay type: biochemical; settings: BcSCh 2 mM; 20 min preincubation at RT; pH 7.4; organophosphate
T1 construct: full length minus signal peptide, C-terminal 6-His tag (pPICZalphaA), secreted from Pichia pastoris X-33, IMAC purified; synthetic ORF

[2] = target: T2, SmAChE2 (Schistosoma mansoni, UniProt A0A3Q0KMM5); test: Ellman assay, inhibition of AcSCh hydrolysis; assay type: biochemical; settings: AcSCh 2 mM; 20 min preincubation at RT; pH 7.4; organophosphate
T2 construct: full length minus signal peptide, C-terminal 6-His tag (pPICZalphaA), secreted from Pichia pastoris X-33, IMAC purified; synthetic ORF

[3] = target: T3, SmAChE1 (Schistosoma mansoni, UniProt Q71SU7); test: Ellman assay, inhibition of AcSCh hydrolysis; assay type: biochemical; settings: AcSCh 2 mM; 20 min preincubation at RT; pH 7.4; organophosphate
T3 construct: full length minus signal peptide, C-terminal 6-His tag (pPICZalphaA), secreted from Pichia pastoris X-33, IMAC purified; synthetic ORF

[4] = target: T1, SmBChE1; test: Ellman assay, inhibition of BcSCh hydrolysis; assay type: biochemical; settings: BcSCh 2 mM; 20 min preincubation at RT; pH 7.4
[5] = test system: CC(=O)SCC[N+](C)(C)C; test: purified protein; assay type: biochemical, Schistosoma mansoni; settings: 0.1 M sodium phosphate, pH 7.4, 0.5 mM DTNB
[6] = test system: CCCC(=O)SCC[N+](C)(C)C; test: purified protein; assay type: biochemical, Schistosoma mansoni; settings: 0.1 M sodium phosphate, pH 7.4, 0.5 mM DTNB

T1 sequence (A0A3Q0KKW0 entry or part of it): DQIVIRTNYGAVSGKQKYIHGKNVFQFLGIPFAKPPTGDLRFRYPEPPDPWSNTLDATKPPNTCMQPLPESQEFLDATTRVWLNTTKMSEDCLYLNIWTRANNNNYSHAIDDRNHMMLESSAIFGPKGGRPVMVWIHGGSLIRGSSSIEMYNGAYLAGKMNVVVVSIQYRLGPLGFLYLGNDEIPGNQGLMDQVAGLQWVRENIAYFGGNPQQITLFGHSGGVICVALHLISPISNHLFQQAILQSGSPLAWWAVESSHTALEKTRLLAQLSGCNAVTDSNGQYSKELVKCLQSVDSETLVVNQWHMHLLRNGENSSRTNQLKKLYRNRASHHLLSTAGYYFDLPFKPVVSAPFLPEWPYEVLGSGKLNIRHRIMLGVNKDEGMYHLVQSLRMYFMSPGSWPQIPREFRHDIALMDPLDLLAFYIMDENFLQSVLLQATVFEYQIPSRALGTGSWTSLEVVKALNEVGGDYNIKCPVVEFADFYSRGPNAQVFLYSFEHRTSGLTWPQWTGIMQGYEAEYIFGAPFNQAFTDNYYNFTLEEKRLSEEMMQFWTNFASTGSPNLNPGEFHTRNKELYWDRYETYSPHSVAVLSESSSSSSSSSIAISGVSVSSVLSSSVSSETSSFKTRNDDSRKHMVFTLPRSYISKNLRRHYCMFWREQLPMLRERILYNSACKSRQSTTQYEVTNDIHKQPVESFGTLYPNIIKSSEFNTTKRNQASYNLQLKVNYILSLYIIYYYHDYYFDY
T3 sequence (Q71SU7 entry or part of it): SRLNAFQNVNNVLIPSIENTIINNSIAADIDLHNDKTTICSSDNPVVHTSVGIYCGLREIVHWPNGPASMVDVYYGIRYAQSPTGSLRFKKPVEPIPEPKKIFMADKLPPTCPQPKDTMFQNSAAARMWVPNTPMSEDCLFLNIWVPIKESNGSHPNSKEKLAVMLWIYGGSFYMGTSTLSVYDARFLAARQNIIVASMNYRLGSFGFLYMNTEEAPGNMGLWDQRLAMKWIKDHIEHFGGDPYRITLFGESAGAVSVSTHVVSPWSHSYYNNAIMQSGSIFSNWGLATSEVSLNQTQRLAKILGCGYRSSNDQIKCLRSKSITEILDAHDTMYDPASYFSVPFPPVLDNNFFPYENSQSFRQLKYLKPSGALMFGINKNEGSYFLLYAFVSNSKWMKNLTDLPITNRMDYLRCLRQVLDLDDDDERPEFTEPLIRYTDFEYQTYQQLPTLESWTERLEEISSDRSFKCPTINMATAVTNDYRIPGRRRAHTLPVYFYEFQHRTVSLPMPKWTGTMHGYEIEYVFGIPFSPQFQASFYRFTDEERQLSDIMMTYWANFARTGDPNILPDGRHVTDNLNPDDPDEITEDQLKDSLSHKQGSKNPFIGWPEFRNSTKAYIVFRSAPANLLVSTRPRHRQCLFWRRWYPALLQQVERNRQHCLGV
T2 sequence (A0A3Q0KMM5 entry or part of it): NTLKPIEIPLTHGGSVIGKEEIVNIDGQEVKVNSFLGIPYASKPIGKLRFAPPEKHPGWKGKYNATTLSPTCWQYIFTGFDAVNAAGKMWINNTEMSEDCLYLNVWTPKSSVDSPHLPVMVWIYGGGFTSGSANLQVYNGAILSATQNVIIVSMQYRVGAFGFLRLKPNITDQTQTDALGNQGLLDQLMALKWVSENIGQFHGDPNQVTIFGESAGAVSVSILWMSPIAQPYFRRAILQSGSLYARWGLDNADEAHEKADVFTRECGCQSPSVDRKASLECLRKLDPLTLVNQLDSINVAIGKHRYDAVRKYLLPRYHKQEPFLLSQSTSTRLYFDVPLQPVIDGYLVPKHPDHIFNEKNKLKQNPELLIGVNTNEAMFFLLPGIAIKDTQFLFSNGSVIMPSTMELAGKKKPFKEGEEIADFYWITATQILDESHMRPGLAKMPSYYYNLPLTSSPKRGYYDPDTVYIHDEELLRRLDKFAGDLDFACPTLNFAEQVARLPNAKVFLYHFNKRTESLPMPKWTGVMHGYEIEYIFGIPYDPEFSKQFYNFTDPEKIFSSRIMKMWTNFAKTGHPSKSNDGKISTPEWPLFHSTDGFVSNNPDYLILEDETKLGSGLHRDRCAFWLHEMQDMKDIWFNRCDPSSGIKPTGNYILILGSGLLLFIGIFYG

COP(=O)(OC)OC=C(Cl)Cl [DDVP, 2,2-dichlorovinyl dimethyl phosphate]
inhibition at 1, 5 and 10 μM [1]: BChE activity of schistosome extracts and recombinant SmBChE1 significantly decreased in the presence of
inhibition at 1 μM [2]: preferred substrate activity of both SmAChE1 and SmAChE2 was inhibited by DDVP
inhibition at 1 μM [3]: preferred substrate activity of both SmAChE1 and SmAChE2 was inhibited by DDVP

CC(C)NP(=O)(NC(C)C)OP(=O)(NC(C)C)NC(C)C [iso-OMPA]
inhibition at 1 mM [4]: iso-OMPA, a specific inhibitor of BChE, only inhibited SmBChE1 activity

SmAChE1 (Schistosoma mansoni)
Km [5]: 5.83 ± 1.62 mM
Vmax [5]: 0.00557 µmol/min/mg

SmAChE2 (Schistosoma mansoni)
Km [5]: 10.87 ± 6.17 mM
Vmax [5]: 0.00559 µmol/min/mg

SmBChE1 (Schistosoma mansoni)
Km [6]: 34.38 ± 12.71 mM
Vmax [6]: 0.0017 ± 9e-05 µmol/min/mg

Source: article PMC6919630, “Novel cholinesterase paralogs of Schistosoma mansoni have perceived roles in cholinergic signalling and drug detoxification and are essential for parasite survival” (PLoS Pathogens, 2019)
